The values below come from the nanobody polyreactivity screen of Harvey et al. (2022).

This series in a line: yeast display, Sf9 membrane polyspecificity reagent, FACS + sequencing; frameworks hold sequencing errors. The gist of the method:
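Polyreactivity labels are assigned by the sorting gate from which each nanobody was recovered. The gates were low and high (top ~1%), set on anti-HA fluorescence for expression and streptavidin fluorescence for reagent binding. Before sorting, galactose-induced (36–48 hours) yeast display cells were stained for 1 hour at 4 °C with 10% biotinylated, detergent-solubilized Sf9 membrane reagent.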
For “QVQLVESGGGLVQEGGSLRLSCAASGSIFAKYAMGWYSQAPGKEREFVAGISYSGNTYYADSVKGRFTISRDNAKNTVYLQMNSLKPEDTAVYYCAADGYLQTRRFDYWGQGTQVTVSS”, the “polyreactivity (PSR sort gate)” value was “high polyreactivity”.

Take “QVQLVESGGGLVQEGGSLRLSCAASGSIFGRNVMGWYRQAPGKERELVAAISEGGGRTYYADSVKGRFTISRDNAKNTVYLQMNSLKPEVTAVYYCAAAYFSSGYKYYYWGQGTQVTVSS”: the “polyreactivity (PSR sort gate)” value is recorded as “high polyreactivity”. To “QVQLVESGGGLVQEGGSLRLSCAASGSIFKEYAMGWSRQAPGKERELVAAISTSGDITYYSDSVKGRFTISRDNAKNTVYLQMNSLKPEDTGVYYCAANYSLLRQYNRLDYWGQGTQLTVSS” belongs “low polyreactivity”; to “QVQLVESGGGLVQEGGSLRLSCAASGSIFNTYAMGRYRQAPGKEREMVAGITKTGSRTYYADSVKGRFTISRDNAKNTVYLQMNSLKPEDTAVYYCNARIWPRSYRYDYWGQGTQVTVSS”, “high polyreactivity”; to “QVQLVESGGGLVQEGGSLRLSCAASGSTFPLYTMGWYRQAPGKERELVATISRGGSTYYADSVKGRFTISRDNAKNTVYLQMNSLKPEDTAVYYCAARPFGFKFDYWGQGTQVTVSA”, “low polyreactivity”. To “QVQLVESGGGLVQEGGSLRLSCAASGSTFSNYMGWYRQAPGKERELVAAITQSGVSTYYADSVKGRFTISRDNAKNTVYLQMNSLKPEDTAVYYCYNYLSGYDYWGQGTQVTVSS” belongs “low polyreactivity”; to “QVQLVESGGGLVQEGGSLRLSCAASGSTFYNYAMGLYRQAPGKERELVAAITSSGGSTYYADSVKGRFTISRDYAKNTVYLQMNSLKPEDTAVYYCNADDGYGQVHSISNYEMDYWGQGTQVTVSS”, “low polyreactivity”. Regarding “QVQLVESGGGLVQEGGSLRLSCAASGSTFYYYAMGWYRQAPGKERELVAAISSSGSTYYADSVKGRFTISRDNAKNTVYLQMISLNPEDTAVFYCNADSRTAGLNSEYDYWGQGTQVTVSS”, the “polyreactivity (PSR sort gate)” value is on record as “low polyreactivity”. To “QVQLVESGGGLVQEGGSLRLSCAASGSTSRKYTMGWYRQAPGKERELVATISWSGGSTNYADSVKGRFTISRDNAKNNVYLQMNSLIPEDTAVYYCNAYVSPRYRGTRYYYWGQVTQVTVSS” belongs “high polyreactivity”; to “QVQLVESGGGLVQEGGSLRLSCAASGYIFVRYAMGWYRQAPGKEREFVAAISSSGGSTRYADSVKGRFTISRDNAKYTVYLQMHRLKPEDTPVYYCAATSVARNGSPMYYWGQGTLVTVSS”, “high polyreactivity”. For the sequence “QVQLVESGGGLVQEGGSLRLSCASSGFIFEDYAKGWYRQARGKERELVAAMRSNDDSTYYADSVKGRFTISRDNAKNSVYFQMNSLKPEDTAVYYCAAATYGTRLRRYYYWGQGSQVTVSS”, the “polyreactivity (PSR sort gate)” value is given as “high polyreactivity”. To “QVQLVESGGGLVQEGGSLRLSCASSGSTFRYNVMGWYRQAPGKERELVAAITRRGSRTYYADSVKGRFTISRDNAKNTVYLHMNSLKPADTAVYDCNKNSLSVPANDDYWGQGTQVTVSS” belongs “high polyreactivity”. To “QVQLVESGGGLVQEGGSLSLICAASGRIYTPYAMGSYRQAPGKERELVAVIRDGSTYYADSVKGRFTISRDNAKNTVYLQMNSLKPADTAVYDCRYDIWVWWSGAYDYWGQCTQVTVSS” belongs “low polyreactivity”. To “QVQLVESGGGLVQGGGSLGLSCAASGRIFPVNAMGWYRQAPGKERELVAAISTTGARTYYADSVKGRFTISRDNAKNTVYLQMNSLKPEDTAVYYCAAKQFSVTLSNYWGQGTQVTVSS” belongs “low polyreactivity”. For “QVQLVESGGGLVQGGGSLRLSCAASGINFGLYTMGWYRQAPGKERELVAAISDSGGRTYYADSVKGRFTISRDNAQNTVYLQMNSLKPEDTSVYYCAAEFWYVWEYNYWGQGTQVTVSS”, the “polyreactivity (PSR sort gate)” value is “high polyreactivity”. To “QVQLVESGGGLVQGGGSLRLSCAASGNILRIYAMGWYRQAPGKEREFVAAIRQSDGRTYYADSVKGRFTISRDNAKNTVYLQMNSLKPEDTSVYYCAADVYQEYDYWGQGTQVTVSS” belongs “high polyreactivity”.
